In paper PMC12088383:

Biological target: GST-OGG1F319A (Homo sapiens, UniProt O15527 1-345, F319A)
Assay: EMSA

Chain of GST-OGG1F319A (O15527 whole entry F319A): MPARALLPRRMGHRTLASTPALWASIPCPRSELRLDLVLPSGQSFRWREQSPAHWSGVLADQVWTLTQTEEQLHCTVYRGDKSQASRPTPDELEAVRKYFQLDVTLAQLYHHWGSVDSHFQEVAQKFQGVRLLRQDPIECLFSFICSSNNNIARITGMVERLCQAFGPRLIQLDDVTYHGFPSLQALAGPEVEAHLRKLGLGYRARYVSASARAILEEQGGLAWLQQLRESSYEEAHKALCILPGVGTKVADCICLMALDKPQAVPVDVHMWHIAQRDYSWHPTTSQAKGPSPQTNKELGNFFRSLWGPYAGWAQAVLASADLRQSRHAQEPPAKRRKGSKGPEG

B1: 8-oxoGua duplex probe (Table S1) (dsDNA)
DNA 1: AGAGAAGAAGAAGAAGAAGAGATGGGTTATTCGAACTAGC
DNA 2: GCTAGTTCGAATAACCCATCTCTTCTTCTTCTTCTTCTCT
modifications: 8-oxoguanine at position 19 of strand 1 (printed X, written as G)
  binding result: no binding
